# Test results from patent US20240043547A1.
# Changes are numbered by the printed parent chain.
# B1: PRO1901 (scFv)
# scFv: AFQLTQSPSSLSASVGDRVTITCQASQSIDSWLAWYQQKPGKPPKLLIYQASKLASGVPSRFSGSGSGTDYTLTISSLQPEDFATYYCQTYYGGGHIGWGFGTGTKVTVLGGGGGSGGGGSGGGGSGGGGSQSQLVESGGGSVQPGGSLRLSCAASGFSFSANYWICWVRQAPGKGLEWIVCIYIGSRADTYYAPWAKGRFTISKDNSKNTVYLQMNSLRAEDTATYFCARFSSGIYDLDRFFLWGQGTQVTVSS
# B2: PRO1902 (scFv)
# scFv: B1 scFv with S142L, Y184S, T226V, Q250L
# B3: PRO1903 (scFv)
# scFv: B1 scFv with D30E, S142L, T226V, Q250L
# Biological target: human IL-31 (human) (UniProt Q6EBC2)
# Sequence (Q6EBC2 24-164 limits assumed): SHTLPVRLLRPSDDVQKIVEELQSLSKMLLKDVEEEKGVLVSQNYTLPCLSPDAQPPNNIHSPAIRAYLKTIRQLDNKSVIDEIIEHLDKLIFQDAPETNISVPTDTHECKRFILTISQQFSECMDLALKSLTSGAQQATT
# Experiment: cell-based or functional assay
"IC50 [ng/ml], neutralization of hIL-31-induced signaling in IL-31RA/OSMR dimerization assay [ng/mL]","rel. IC50 (IC50, BMS-981164/IC50, test sample), IL-31RA/OSMR dimerization assay",Binder
8.07,0.78,B1
371,0.03,B2
7.98,1.49,B3

# Biological target: cynomolgus IL-31-His (cynomolgus monkey (Macaca fascicularis))
# Experiment: SPR (Biacore T200), cynomolgus IL-31-His captured via anti-His antibody, scFv as analyte
Kd [nM],koff [s⁻¹],kon [M⁻¹ s⁻¹],Binder
1.14,0.000569,501000,B1
3.38,0.00247,731000,B2
1.39,0.000605,434000,B3
